Assay results taken from PMC9974412.

Molecular target: HIV-1 Env, strain HXB2 (HIV-1) (UniProt P04578)

Question: With 5-Helix (designed binder) as the substance, how does the IC50 of neutralisation of HXB2 Env-pseudotyped lentivirus, HOS-CD4-CCR5 cells read?
Answer: 8.2 nM
